In PMC11582362 (Nature Communications, 2023):

Key:
[1] = target: the molecule itself; experiment: SEC-SAXS; BioSEC-3 column, 15 °C, 0.3 mL/min, 20 mM Na-HEPES pH 7.3, 55 mM KOAc, 10 mM NaCl, 1 mM TCEP; purification tags cleaved off; SWING beamline, SOLEIL
[2] = target: the molecule itself; experiment: SEC-MALS; SEC-MALLS, BioSEC-3 column, 25 °C, 0.4 mL/min, 20 mM Na-phosphate pH 7.0, 100 mM NaCl, 2 mM 2-mercaptoethanol; His6-tag kept

Protein	stoichiometry N [1]	stoichiometry N [2]
ADAR1-dsRBD3 dsRBD3-long construct (residues 688-817) (domain or fragment, human, UniProt P55265 688-817, looked up, human ADAR1, third dsRBD with flanking regions, residues 688-817 (Uniprot entry P55265); Modified pET28a with TEV site; source: E. coli BL21(DE3) Codon-plus (RIL), purified (Ni-NTA, TEV cleavage, SEC); not shown: His6, N-terminal, cleaved) MASDNQPEGMISESLDNLESMMPNKVRKIGELVRYLNTNPVGGLLEYARSHGFAAEFKLVDQSGPPHEPKFVYQAKVGGRWFPAVCAHSKKQGKQEAADAALRVLIGENEKAERMGFTEVTPVTGASLRR	2	–
ADAR1-dsRBD3 dsRBD3-mid construct (residues 708-801), tag cleaved (domain or fragment, human, UniProt P55265 708-801, looked up, human ADAR1, third dsRBD, residues 708-801 (Uniprot entry P55265); Modified pET28a with TEV site; also called dsRBD-mid; source: E. coli BL21(DE3) Codon-plus (RIL), purified (Ni-NTA, TEV cleavage, SEC); not shown: His6, N-terminal, cleaved) MMPNKVRKIGELVRYLNTNPVGGLLEYARSHGFAAEFKLVDQSGPPHEPKFVYQAKVGGRWFPAVCAHSKKQGKQEAADAALRVLIGENEKAER	2	–
ADAR1-dsRBD3 dsRBD3-short construct (residues 716-797) (domain or fragment, human, UniProt P55265 716-797, looked up, human ADAR1, folded part of the third dsRBD, residues 716-797 (Uniprot entry P55265); Modified pET28a with TEV site; also called dsRBD-short; ADAR1-dsRBD3 (crystal structures); source: E. coli BL21(DE3) Codon-plus (RIL), purified (Ni-NTA, TEV cleavage, SEC); not shown: His6, N-terminal, cleaved) IGELVRYLNTNPVGGLLEYARSHGFAAEFKLVDQSGPPHEPKFVYQAKVGGRWFPAVCAHSKKQGKQEAADAALRVLIGENE	2	–
ADAR1-dsRBD3 (residues 708-801) with uncleavable His6-tag, wild type (domain or fragment, human, UniProt P55265 708-801, looked up, human ADAR1, third dsRBD, residues 708-801 (Uniprot entry P55265); pET28a between NdeI and XhoI; also called wild-type ADAR1-dsRBD3; source: E. coli BL21(DE3) Codon-plus (RIL), purified (Ni-NTA, SEC); not shown: His6, N-terminal, kept) MMPNKVRKIGELVRYLNTNPVGGLLEYARSHGFAAEFKLVDQSGPPHEPKFVYQAKVGGRWFPAVCAHSKKQGKQEAADAALRVLIGENEKAER	–	2
